# Measured values reported in paper PMC6763431, “Methionine in a protein hydrophobic core drives tight interactions required for assembly of spider silk” (Nature Communications, 2019).
# B1: wild-type N-terminal domain of major ampullate spidroin 1 (MaSp1) from Euprosthenops australis [Euprosthenops australis] / itself (parent)
# chain: SHTTPWTNPGLAENFMNSFMQGLSSMPGFTASQLDDMSTIAQSMVQSIQSLAAQGRTSPNKLQALNMAFASSMAEIAASEEGGGSLSTKTSSIASAMSNAFLQTTGVVNQPFINEITQLVSMFAQAGMNDVSA
# Variants of: B1
# Test: high-resolution SEC
# Conditions: with itself; read off a plot
row,Kd [nM],Variant
1,660,SHTTPWTNPGLAENFLNSFLQGLSSMPGFTASQLDDLSTIAQSLVQSIQSLAAQGRTSPNKLQALNMAFASSMAEIAASEEGGGSLSTKTSSIASAMSNAFLQTTGVVNQPFINEITQLVSMFAQAGMNDVSA
2,160,SHTTPWTNPGLAENFLNSFLQGLSSMPGFTASQLDDMSTIAQSMVQSIQSLAAQGRTSPNKLQALNMAFASSMAEIAASEEGGGSLSTKTSSIASAMSNAFLQTTGVVNQPFINEITQLVSMFAQAGMNDVSA

# The next lines start with the variant.
row,Variant,Kd [nM]
1,SHTTPWTNPGLAENFLNSFLQGLSSMPGFTASQLDDLSTIAQSLVQSIQSLAAQGRTSPNKLQALNMAFASSLAEIAASEEGGGSLSTKTSSIASAMSNAFLQTTGVVNQPFINEITQLVSMFAQAGMNDVSA,1000
2,SHTTPWTNPGLAENFLNSFLQGLSSMPGFTASQLDDLSTIAQSMVQSIQSLAAQGRTSPNKLQALNMAFASSMAEIAASEEGGGSLSTKTSSIASAMSNAFLQTTGVVNQPFINEITQLVSMFAQAGMNDVSA,750
